# Paper PMC12057666 (Science Advances, 2025)
# B1: Es5.127 IgG antibody (antibody, V domains shown)
# VH: EVQLVQSGAEVKKPGESLKISCKGSGYRSGYSFSSYWIGWVRQRPGKGLEWMGIIQPGDSDTTYSPSFQGQVTISADKSINTAYLQWSSLKASDTAIYYCARVRGSLKVPAAVPFDPWGQGTLVTVSS
# VL: QSVLTQPPSVSAAPGQKVTISCSGSSSNIGNNYVSWYQQFPGIAPKLLIYDNNKRPSGIPDRFSGSKSGTSATLGITGLQTGDEADYYCGTWDSSLSDVVFGGGTKLTVL
# notes: source: Freestyle 293-F, transient cotransfection, purified (Protein G Sepharose 4 Fast Flow)
# B2: Es1.327 IgG antibody (antibody, V domains shown)
# VH: QVQLVQSGGEVKKPGASVRVSCQTSGYSFTHYSITWVRQAPGQGLEWMGWITTYNGKTSYAQKFQDRVTMTADTSSRTAYVELRSLRSDDTAVYYCVRVWTGYGTNRGDYWGQGTLVTVSS
# VL: PSSLYASVGDRVTITCRASQSINTFLNWYQQKPGNAPKLLIHAASTLESGVPSRFSGSGSGTDFTLTISSLQPEDFATYYCQQSDNNFALTFGGGTKVEIR
# notes: as for B1
# B3: Es4.431 IgG antibody (antibody, V domains shown)
# VH: EVQLLESGGGLVQPGGSLRLSCTASGFTFDTHVMSWVRQGPGKGLEWVSSISAASGTYYAGSVKGRFTISRDNSKNTLFLHMNSLRVEDTGVYYCANVVHRCTTNTCFRGADNWGQGTLVTVSS
# VL: PSSLSASVGDRVTITCRASQSVDTYLNWYQQKPGETPKLLIYAASTLQSGVPSRFSGSGSGTTFTLTISSLQPEDFATYYCQQSYTTLMYTFGQGTKLEIK
# notes: as for B1
# How the values were obtained:
# Details in all cases: both partners purified
# [1] = target: T1, genotype 3a HEV-CA protein (3a Meng) (Hepatitis E virus genotype 3a, swine …, UniProt Q6J8F7, strain); assay: SPR; Biacore 2000; purified IgG (10 μg/ml) captured on Protein G sensor chip; capsid proteins injected at 5 or 10 to 0.312 nM; HBS-EP (10 mM Hepes pH 7.2, 150 mM NaCl, 3 mM EDTA, 0.005% Tween 20); 22°C; Langmuir model, global analysis; apparent affinity
# T1 construct: also called genotype 3 HEV-CA; source: Freestyle 293-F, transient transfection (PEI), purified from culture supernatant (Ni Sepharose Excel)
# [2] = target: T2, HEV-C1 capsid protein (Rocahepevirus, rat hepatitis E virus) (Rocahepevirus (rat hepatitis E virus …, UniProt E0XL23, strain)); assay: as above
# T2 construct: capsid protein (ORF2) of Rocahepevirus HEV-C1 (rat hepatitis E virus); Igk leader at the N terminus of the construct; also called HEV-C1 protein; Rocahepevirus CA; source: Freestyle 293-F, transient transfection (PEI), purified from culture supernatant (Ni Sepharose Excel)
# [3] = target: T3, genotype 1d HEV-CA protein (1d Morocco) (Hepatitis E virus genotype 1d, Morocco, …, UniProt Q9W7W9, strain); assay: as above
# T3 construct: hepatitis E virus capsid protein (ORF2), genotype 1d, strain Morocco; the 3-2712 HEV-CA construct of the same list is ORF2 126-601; Igk leader at the N terminus of the construct; also called genotype 1 HEV-CA; source: Freestyle 293-F, transient transfection (PEI), purified from culture supernatant (Ni Sepharose Excel)
# [4] = target: T4, HEV-P, wild-type HEV-CA P domain protein, ORF2(455-601), genotype 3, 2712 strain (hepatitis E virus genotype 3, strain …, UniProt Q9YLQ9); assay: ELISA; plates coated overnight with 125 ng per well of purified protein; serial dilutions of monoclonal antibodies in PBS, 2 hours; HRP anti-human IgG
# T4 construct: source: Freestyle 293-F, transient transfection (PEI), purified from culture supernatant (Ni Sepharose Excel)
# T4 sequence (Q9YLQ9 455-601): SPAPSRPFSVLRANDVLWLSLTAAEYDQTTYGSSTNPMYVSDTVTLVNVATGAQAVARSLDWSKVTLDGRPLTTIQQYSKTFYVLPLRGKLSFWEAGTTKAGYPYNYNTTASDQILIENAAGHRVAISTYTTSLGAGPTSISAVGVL
binder,measurement,setting,value
B1,Kd,[1],0.41 nM
same,Kd,[2],1.6 nM
same,binding result,[3],binds
B2,binding result,[4],binds
B3,binding result,[4],binds
